Changes are numbered by the printed parent chain. Names may count otherwise.

The nature of test [1]: pH-dependent fluorescence assays (pH titration). The settings on record: from pH 8.38 to pH 3.63. The format is biochemical. Here is the method:
In measuring pH-dependent fluorescence (Fig. 3d–i), Na2HPO4-citrate buffer supplemented with 150 mM NaCl at unique pH values were produced via mixing various volumes of 100 mM citric acid (Sigma Aldrich), 200 mM Na2HPO4 (Sigma Aldrich), and 2.00 M NaCl, and final pHs quantified via an Accumet AB15 Basic pH meter (Fisher Scientific). pHRed and pHluorin2 were produced via large-scale protein purification, 6xHis-tag removal and size-exclusion chromatography (SEC) purification, and mFAP_pH and mFAP2b were produced via large-scale protein purification and SEC purification. pH-dependent fluorescence was measured at […] final protein concentration for mFAP2b, mFAP_pH and pHRed, and 170 nM final concentration for pHluorin2, at each pH in technical triplicate in 200 μL final volumes per well. […] In measuring fluorescence excitation spectra at each pH (Fig. 3d), excitation wavelengths were set to the range λex = 300–530 nm and fluorescence emission measured at λem = 562 nm. In measuring pH-dependent fluorescence excitation spectra at pH 3.76 and pH 7.34 (Fig. 3f, g), excitation spectra were measured using excitation wavelengths in the range λex = 300–540 nm and emission wavelength λem = 592 nm. […]

A short description of test [2]: Ca2+-responsive mFAP Ca2+ titrations. It counts as binding. Particulars: in the presence of excess DFHBI. On the procedure: In measuring Ca^2+ affinity of mFAPs on a Synergy Neo2 hybrid multi-mode reader (Fig. 4d, e, f and Supplementary Figs. 10c, f, i, 11c, f, i, 13c, f, i, 16b), large-scale purified proteins[49] were aliquoted in technical triplicate to a final concentration of 500 nM with 5.00 μM DFHBI in eleven serial dilutions ( 10 dilution factor) of CaCl2 (Sigma Aldrich) starting from either 900 mM or 90.0 mM CaCl2 (diluted using high-salt Tev cleavage buffer) including a twelfth condition without CaCl2. Final volumes were 200 μL in flat bottom, black polystyrene, non-binding surface 96-well microplates (Corning 3650). Fluorescence endpoints were measured using excitation wavelength λex = 484 nm and emission wavelength λem = 508 nm. Background fluorescence endpoints of wells with identical chromophore and CaCl2 concentrations lacking protein (substituted for equivalent volumes of high-salt Tev cleavage buffer) were measured in technical triplicate, averaged per condition, and subtracted from protein measurement averages of the same conditions.
For Ca^2+ titrations of EF4n_mFAP2a and EF4n_mFAP2b (Supplementary Fig. 13c), a small amount of Chelex 100 sodium form (Sigma Aldrich) was added to purified protein (produced by large-scale protein purification and SEC purification[49]) and nutated at 4 °C overnight. EF4n_mFAP2a was aliquoted in technical triplicate to a final concentration of 8.00 μM with 80.0 μM DFHBI and EF4n_mFAP2b was aliquoted in technical triplicate to a final concentration of 6.25 μM with 43.4 μM DFHBI, in eleven serial dilutions ( 10 dilution factor) of CaCl2 starting from 9.00 mM or 4.00 mM CaCl2 (diluted using high-salt Tev cleavage buffer pre-treated with Chelex 100) including a twelfth condition without CaCl2. Final volumes were 25.0 μL in flat bottom, black polystyrene, non-binding surface 96-well half-area microplates (Corning 3686) or 200 μL in flat bottom, black polystyrene, non-binding surface 96-well microplates (Corning 3650). Fluorescence endpoints were measured for EF4n_mFAP2a using excitation wavelength λex = 478 nm and emission wavelength λem = 520 nm, and for EF4n_mFAP2b using excitation wavelength λex = 484 nm and emission wavelength λem = 508 nm. Background fluorescence endpoints of wells with identical chromophore and CaCl2 concentrations lacking protein (substituted for equivalent volumes of high-salt Tev cleavage buffer) were measured in technical triplicate, averaged per condition, and subtracted from protein measurement averages of the same conditions. For non-linear least squares fitting to obtain Kd values, means were fit to a single-binding site isotherm function where Ca^2+-binding sites were modeled independently with a Hill coefficient of 1.

Test [3] in a line: Ca2+-responsive mFAP DFHBI titrations. The settings on record: in the presence of excess Ca2+ (Kd+). It counts as binding. Here is the method:
Final volumes were 25.0 μL in flat bottom, black polystyrene, non-binding surface 96-well half-area microplates (Corning 3686) or 200 μL in flat bottom, black polystyrene, non-binding surface 96-well microplates (Corning 3650). Fluorescence endpoints were measured using excitation wavelength λex = 488 nm and emission wavelength λem = 510 nm. Background fluorescence endpoints of wells with identical chromophore concentrations lacking protein (substituted for equivalent volumes of high-salt Tev cleavage buffer) were measured and subtracted from protein measurements prior to normalization.
For DFHBI titrations of EF4n_mFAP2a and EF4n_mFAP2b (Supplementary Fig. 13a, b), a small amount of Chelex 100 sodium form (Sigma Aldrich) was added to purified protein (produced by large-scale protein purification and SEC purification[49]) and nutated at 4 °C overnight. […] Fluorescence endpoints were measured using excitation wavelength λex = 488 nm and emission wavelength λem = 510 nm for EF4n_mFAP2b, and excitation wavelength λex = 478 nm and emission wavelength λem = 520 nm for EF4n_mFAP2a. Background fluorescence endpoints of wells with identical chromophore concentrations lacking protein (substituted for equivalent volumes of Chelex 100 pre-treated high-salt Tev cleavage buffer) were measured and subtracted from protein measurements prior to normalization.

A further test has as its system HEK293 cells. Kind of test: HEK293 cell surface-displayed Ca2+ titrations. The settings on record: Ca2+ from 0 to 10 mM; 7.00 µM DFHBI; extracellular display. The format is cell-based. Here is the method: Plasmid DNAs (Supplementary Data 15 and Supplementary Data 17) were purified in ddH2O for transfections. pGP-CMV-GCaMP6f was a gift from Douglas Kim & GENIE Project (Addgene plasmid #40755; [http://n2t.net/addgene:40755]; RRID: Addgene_40755). Wild-type HEK293 cells (ATCC CRL-1573) were cultured on 24-well plates in DMEM media (4.5 g L^−1 D-glucose, L-glutamine; ThermoFisher #11965-092) supplemented with 10% FBS and 1% Penicillin/Streptomycin in a 5% CO2 atmosphere at 37 °C. Cells were seeded into 24-well plates (ThermoFisher #FB012929) at 100,000 cells well^−1. Twenty-four hours after seeding, cell media was aspirated and replaced with 200 μL of DMEM media. […]
Data analysis: Regions of interest (ROIs) surrounding single cells from three technical replicates were hand-drawn in ImageJ software. For each cellular ROI in each frame the average fluorescence was calculated in ImageJ. In order to perform background subtraction, cellular ROIs were then moved proximal to the original cell to an ROI where there was no fluorescence. Each cellular ROIs average fluorescence had the average background intensity subtracted for each frame. […]

B1: mFAP_pH: particularly pH-responsive variant (protein)
chain: SRAAQLLPGTWQVTMTNEDGQTSQGQMHFQPRSPYTMDIVAQGTISDGRPIVGYGKATVKTPDTLDIDITYPSLGNIKAQGQITMDSPTQFKFDATTKGENDFHGRLTGTLQRQE
Regarding B1, the “fold-change in ratiometric fluorescence (Fratio)” value in test [1] is given as ~ 250 fold.

B2: EF1p2_mFAP2b (K101A): K101A lysine-to-alanine substitution in EF1p2_mFAP2b (protein)
chain: SRAAQLLPGTWQVTMTNEDGQTSQGQWHFQPRSPYTMDIVAQGTISDGRPIVGYGKATVKTPDTLDIDITYPSLGNIKAQGQITMDSPTQFKWDAHYKGDADGDGYISAAEAAAQGLTGTLQRQE
B2: the “reduction of Ca2+ affinity compared with EF1p2_mFAP2b” value in test [2] is recorded as ~ 29 fold. For the same molecule, in test [3], the “reduction of DFHBI affinity compared with EF1p2_mFAP2b” value is recorded as ~ 21 fold.

B3: EF1p_mFAP2b: positively allosteric Ca2+-responsive mFAP, one EF-hand motif (protein)
chain: B2 chain with A101K, G116I
For B3, the “fluorescence fold-change (ΔF/F0)” value with HEK293 cells is ~ 0.5.

The values are drawn from PMC7870846, “Incorporation of sensing modalities into de novo designed fluorescence-activating proteins” (Nature Communications, 2021).
